Results on 19 molecules are retold here after patent US20120021993A1 (AJOU UNIVERSITY INDUSTRY ACADEMIC COOPERATION FOUNDATION, published 2012).

Assay [1] addresses T1, human-derived cell death receptor 4, extracellular domain (amino acid residues 1-216), 6xHis tag (human, UniProt O00220 24-239).
T1 construct: extracellular domain; Expressed in E. coli; biotinylated for sorting and flow cytometry; residues 1-216; also called DR4; TRAIL-receptor 1
Kind of assay: ELISA, homo-dimer against monomer. For orientation: In an ELISA, binding on a coated surface is turned into a signal by an enzyme label.

Assay [2] has as its target T1, human-derived cell death receptor 4, …. Kind of assay: ELISA, target coated on the plate.
For assay [3], the target named is T2, human-derived cell death receptor 5, extracellular domain (amino acid residues 1-130), 6xHis tag (human, UniProt O14763 56-210).
T2 construct: extracellular domain; Expressed in E. coli; biotinylated for sorting and flow cytometry; also called DR5; TRAIL-receptor 2
Kind of assay: affinity ELISA, target coated on the plate. Here is the method: (§1) In order to measure the affinity and cross reactivity of the anti-DR4, -DR5 and -TNFα protein scaffold variants based on the Kringle domain structure to the target molecules, an enzyme-linked immunosorbent assay (ELISA) was performed. The target molecules DR4, DR5, TNFα and DcR1, DcR2 were attached to a 96 well EIA/RIA plate (COSTARCorning In., USA) by its reaction at 37° C. for 1 hour, and washed three times with 0.1% PBST (0.1% Tween20, pH 7.4, 137 mM NaCl, 10 mM Phosphate, 2.7 mM KCl, SIGMA-ALDRICH Co., USA) for 10 minutes. The target molecules were attached for 1 hour to a 96 well EIA/RIA plate in 1% PBSB (1% BSA, pH 7.4, 137 mM NaCl, 10 mM Phosphate, 2.7 mM KCl, SIGMA-ALDRICH Co., USA), and then washed three times with 0.1% PBST (0.1% Tween 20, pH 7.4, 137 mM NaCl, 10 mM Phosphate, 2.7 mM KCl, SIGMA-ALDRICH Co., USA) for 10 minutes. Then, the anti-DR4, -DR5 and -TNFα Kringle domain variants were bound, and washed three times with 0.1% PBST for 10 minutes. The anti-DR4, -DR5 and -TNFα Kringle domain variants were primarily bound to mouse-derived anti-c-myc 9e10 mAb (Ig Therapy, Korea), and secondarily bound to alkaline phosphatase (AP)-conjugated anti-mouse mAb (Sigma). Each of the Kringle domain variants was reacted with […] (pNPP, Sigma-aldrich Co., USA) and quantified at an absorbance of 405 nm.
(§2) In order to analyze the affinities of the Fc-fused anti-DR4, -DR5 and -TNFα Kringle domains to target molecules, the affinities of the Fc-fused anti-DR4, -DR5 and -TNFα Kringle domains to the target molecules were analyzed using ELISA, as described in Example 8.

Another assay deals with cell surface DR5 (human, UniProt O14763 56-440). Kind of assay: cell-based or functional assay.
Assay [4] concerns the target T1, human-derived cell death receptor 4, …. Description: ELISA, coated target, single binder concentration not given, A405. Here is the method:
as §1

Assay [5] has as its target T3, TNFα, extracellular domain (amino acid residue 1-157), 6xHis tag (human, UniProt P01375 57-233).
T3 construct: extracellular domain; Expressed in E. coli; The printed residues 1-157 seem to count on the soluble form, not on the precursor; also called human TNFα; tumor necrosis factor alpha
Kind of assay: ELISA, coated target, A405. On the procedure:
as §1

In assay [6] the target is T4, DcR2 (UniProt Q9UBN6 56-211, limits assumed).
T4 sequence (looked up): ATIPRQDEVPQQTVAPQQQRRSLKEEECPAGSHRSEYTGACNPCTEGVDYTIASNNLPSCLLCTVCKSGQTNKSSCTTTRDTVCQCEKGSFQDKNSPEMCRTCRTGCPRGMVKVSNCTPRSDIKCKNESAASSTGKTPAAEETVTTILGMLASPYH
Description: yeast display, flow cytometry MFI [panel KD413].

Assay [7] concerns the target T5, DcR1 (UniProt O14798 26-221, limits assumed).
T5 sequence (looked up): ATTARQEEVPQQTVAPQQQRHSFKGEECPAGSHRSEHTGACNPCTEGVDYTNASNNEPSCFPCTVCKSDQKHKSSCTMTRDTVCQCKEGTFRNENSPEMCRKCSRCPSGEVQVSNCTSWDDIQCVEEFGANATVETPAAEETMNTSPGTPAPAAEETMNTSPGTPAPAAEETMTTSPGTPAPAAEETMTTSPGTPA
Kind of assay: yeast display, flow cytometry MFI [panel KD413]. On the technique in general: A flow cytometer gives signals particle by particle.

In assay [8] the target is T4, DcR2. Description: yeast display, flow cytometry MFI [panel KD548].
Assay [9] has as its target T5, DcR1. Kind of assay: yeast display, flow cytometry MFI [panel KD548].
Assay [10] deals with T4, DcR2. Kind of assay: yeast display, flow cytometry MFI [panel KD415].
Assay [11] deals with T5, DcR1. Description: yeast display, flow cytometry MFI [panel KD415].
In assay [12] the target is T1, human-derived cell death receptor 4, …. Kind of assay: affinity ELISA, target coated on the plate. On the procedure:
as §1, §2

The target of another assay is cell surface DR4 (human, UniProt O00220 24-468). Description: cell-based or functional assay.
For assay [13], the target named is T1, human-derived cell death receptor 4, …. Kind of assay: ELISA, coated target, A405.

Residue numbers refer to the chain shown, from its start.

T3 sequence (P01375 other isoform, or with tags, fused parts or gaps limits assumed): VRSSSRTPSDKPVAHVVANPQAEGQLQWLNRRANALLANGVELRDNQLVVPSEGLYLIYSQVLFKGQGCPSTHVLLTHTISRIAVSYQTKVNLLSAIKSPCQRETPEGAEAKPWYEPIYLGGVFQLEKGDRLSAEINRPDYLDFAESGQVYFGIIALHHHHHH

B1: anti-DR4 KD415 homo-dimer (designed binder)
chain: CTRSKGDEYDGHKHKTNRGLRCQHWPGTKPHFHGDKIKDRHGFRLKKNYCRNPDPQDQPWCFTNRHQHKNELCNQPRCGGGGSGGGGSGGGGSGGGGSCTRSKGDEYDGHKHKTNRGLRCQHWPGTKPHFHGDKIKDRHGFRLKKNYCRNPDPQDQPWCFTNRHQHKNELCNQPRC
As for B1, the “fold increase of affinity against the monomer” value in [1] is about 10 fold. The same molecule returned an affinity value in assay [2] of 87 nM.

B2: KD548-Fc (Fc fusion)
chain: CHQTQGPKYDGNKDKTHKGHKCQSWTKNRPHHHGNKIENEDENRFQKNYCRNPDNKHEPWCFTHGHRDKHELCHEPRC
notes: Disulfide-linked dimer from Pichia pastoris; also called Fc-fused anti-DR5 Kringle domain KD548; not shown: Fc domain region from a hinge of human immunoglobulin G1
In assay [3], B2 had an affinity of 58 nM. Further, the “EC50 (a concentration of protein causing a 50% cell death), HL60, MTT assay” value with cell surface DR5 stood at 220 nM.

B3: KDT02 (designed binder)
chain: CAQDGGPGYDGDKHGTHGGHECQDWTKDGPHIHGFRDQFRDEDQHGKNYCRNPDSQHGPWCFTNEDEHRNELCHEPRC
notes: Soluble monomer from Pichia pastoris; also called KRT02; not shown: C-terminal myc tag-6xHis tag of pPICZaA
Broadly, the EC50 (read off the curve) is the midpoint of the concentration-response curve. High values mean a less potent agent, low ones a more potent agent. With B3, the binding result in [4] is “no binding”. The “EC50 (read off the curve)” value in assay [5] is about 2000 nM.

B4: KD413L56 (designed binder)
chain: CMHCSGENYDGKISKTMSGLECQAWDSQSPHAHGYIPSKFPNKNLKKNYCRNPDPRAGPWCFTHGNRNRYELCDIPRC
Consider B4, for which the binding result in the assay with DcR2 [6] and in the assay with DcR1 [7] was “no binding” each time.

B5: KD548L56 (designed binder)
chain: B4 chain with P55N, R56K, A57H, G58E, N66H, N68D, R69K, Y70H
Regarding B5, the binding result with DcR2 [8] and in the assay with DcR1 [9] was “no binding” throughout.

B6: KD415L567 (designed binder)
chain: CMHCSGENYDGKISKTMSGLECQAWDSQSPHAHGYIPSKFPNKNLKKNYCRNPDPQDQPWCFTNRHQHKNELCNQPRC
In the case of B6, the binding result in the assay with DcR2 [10] and in the assay with DcR1 [11] was “no binding” throughout.

B7: L56 (KD415) (designed binder)
chain: B6 chain with N74D, Q75I
notes: also called KD415L56
Consider B7, for which the binding result with DcR2 [10] and with DcR1 [11] was “no binding” in each case.

B8: L5 (KD413) (designed binder)
chain: B4 chain with H64T, G65D, N66P, R67N, N68K, Y70W
notes: also called KD413L5
Consider B8, for which the binding result with DcR2 [6] and with DcR1 [7] was “no binding” each time.

B9: L567 (KD413) (designed binder)
chain: B4 chain with D74N, I75Q
notes: also called KD413L567
As to B9, the binding result with DcR2 [6] and with DcR1 [7] was “no binding” each time.

B10: L5 (KD415) (designed binder)
chain: B6 chain with N64T, R65D, H66P, Q67N, H68K, K69R, N70W, N74D, Q75I
notes: also called KD415L5
Turning to B10, the binding result in the assay with DcR2 [10] and with DcR1 [11] was “no binding” each time.

B11: L567 (KD548) (designed binder)
chain: CMHCSGENYDGKISKTMSGLECQAWDSQSPHAHGYIPSKFPNKNLKKNYCRNPDNKHEPWCFTHGHRDKHELCHEPRC
notes: also called KD548L567; not shown: Aga2p display anchor, linker and c-myc tag of the pCTCON yeast display vector
Take B11: the binding result in the assay with DcR2 [8] and with DcR1 [9] was “no binding” throughout.

B12: KD415-Fc (Fc fusion)
chain: CTRSKGDEYDGHKHKTNRGLRCQHWPGTKPHFHGDKIKDRHGFRLKKNYCRNPDPQDQPWCFTNRHQHKNELCNQPRC
notes: Disulfide-linked dimer from Pichia pastoris; also called Fc-fused anti-DR4 Kringle domain KD415; not shown: Fc domain region from a hinge of human immunoglobulin G1
Turning to B12, the affinity in [12] stood at 53 nM. Besides, in the assay with cell surface DR4, the “EC50 (a concentration of protein causing a 50% cell death), HL60, MTT assay” value is 60 nM and the “EC50 (a concentration of protein causing a 50% cell death), Jurkat, MTT assay” value came out at 80 nM.

B13: KDT01 (designed binder)
chain: CYEDKGPQYDGDEYGTHKGHRCQNWDENRPHPHGIGHQHKHQVKDGKNYCRNPDDETEPWCFTHKDKYGHELCNRPRC
notes: Soluble monomer from Pichia pastoris; also called KRT01; not shown: C-terminal myc tag-6xHis tag of pPICZaA
On to B13, for which the binding result in assay [4] is “no binding”. Besides, in assay [5], the “EC50 (read off the curve)” value is about 2000 nM.

B14: L1234 (KD548) (designed binder)
chain: CHQTQGPKYDGNKDKTHKGHKCQSWTKNRPHHHGNKIENEDENRFQKNYCRNPDRELRPWCFTTDPNKRWELCDIPRC
notes: also called KD548L1234
B14: the binding result with DcR2 [8] and with DcR1 [9] was “no binding” in each case.

B15: anti-DR4 KD413 homo-dimer (designed binder)
chain: CAKAEGTGYDGHEHKTHKGIRCQNWYKSKPHYHGHQFRDGDKIKNKKNYCRNPDPRAGPWCFTHGNRNRYELCNQPRCGGGGSGGGGSGGGGSGGGGSCAKAEGTGYDGHEHKTHKGIRCQNWYKSKPHYHGHQFRDGDKIKNKKNYCRNPDPRAGPWCFTHGNRNRYELCNQPRC
Turning to B15, in assay [1], the “fold increase of affinity against the monomer” value was about 10 fold. In assay [2], this molecule returned an affinity value of 43 nM.

B16: L1234 (KD413) (designed binder)
chain: CAKAEGTGYDGHEHKTHKGIRCQNWYKSKPHYHGHQFRDGDKIKNKKNYCRNPDRELRPWCFTTDPNKRWELCDIPRC
notes: also called KD413L1234
In the case of B16, the binding result with DcR2 [6] and with DcR1 [7] was “no binding” in each case.

B17: KD413-KD415 hetero-dimer (designed binder, not shown: small tags and cut ends)
chain: CAKAEGTGYDGHEHKTHKGIRCQNWYKSKPHYHGHQFRDGDKIKNKKNYCRNPDPRAGPWCFTHGNRNRYELCNQPRCGGGGSGGGGSGGGGSGGGGSCTRSKGDEYDGHKHKTNRGLRCQHWPGTKPHFHGDKIKDRHGFRLKKNYCRNPDPQDQPWCFTNRHQHKNELCNQPRC
Consider B17, for which, in [13], the “EC50 (read off the curve)” value is about 30 nM.

B18: KD506-Fc (Fc fusion)
chain: CPEDRGHEYDGDGDKTNRGHGCQYWDQNKPHHHGHRDKDKFKHRIKKNYCRNPDYETGPWCFTNRYRNKNELCHEPRC
notes: Disulfide-linked dimer from Pichia pastoris; also called Fc-fused anti-DR5 Kringle domain KD506; not shown: Fc domain region from a hinge of human immunoglobulin G1
In assay [3], B18 came in with an affinity of 43 nM. Besides, in the assay with cell surface DR5, the “EC50 (a concentration of protein causing a 50% cell death), HL60, MTT assay” value came to 230 nM and the “EC50 (a concentration of protein causing a 50% cell death), Jurkat, MTT assay” value was determined as 80 nM.

B19: KD413-Fc (Fc fusion)
chain: CAKAEGTGYDGHEHKTHKGIRCQNWYKSKPHYHGHQFRDGDKIKNKKNYCRNPDPRAGPWCFTHGNRNRYELCNQPRC
notes: Disulfide-linked dimer from Pichia pastoris; also called Fc-fused anti-DR4 Kringle domain KD413; not shown: Fc domain region from a hinge of human immunoglobulin G1
Turning to B19, the affinity in [12] amounted to 60 nM. In addition, the “EC50 (a concentration of protein causing a 50% cell death), Jurkat, MTT assay” value with cell surface DR4 was found to be 60 nM.
